Measurements as given in FireProtDB (doi:10.1021/bi000415x).

B1: Protein P-30, P22069 (parent)
chain: QDWLTFQKKHITNTRDVDCDNIMSTNLFHCKDKNTFIYSRPEPVKAICKGIIASKNVLTTSEFYLSDCNVTSRPCKYKLKKSTNKFCVTCENQAPVHFVGVGSC

Variants of: B1
Details: Lithobates pipiens; pH 2; 25 °C; Thermal; DSC; MES 100 mM; reversible: yes; structure 1ONC; whole UniProt chain shown
With QDWLTFQKKHITNTRDVDCDNILSTNLFHCKDKNTFIYSRPEPVKAICKGIIASKNVLTTSEFYLSDCNVTSRPCKYKLKKSTNKFCVTCENQAPVHFVGVGSC [M23L] the “ddG of mutation (higher = less stable)” value was 2.51 kcal/mol and the unfolding free energy was 6.33 kcal/mol.

Same assay, conditions: Lithobates pipiens; pH 2; Thermal; DSC; MES 100 mM; reversible: yes; structure 1ONC; whole UniProt chain shown
With QDWLTFQKKHITNTRDVDCDNILSTNLFHCKDKNTFIYSRPEPVKAICKGIIASKNVLTTSEFYLSDCNVTSRPCKYKLKKSTNKFCVTCENQAPVHFVGVGSC [M23L] the Tm was 62.2 °C, the “change of melting temperature, mutant - wild type (higher = more stable)” value (“change of melting temperature, mutant” for short) was -7.3 °C and the “heat capacity change of unfolding” value was 1.24 kcal/mol/K. For the same variant, the “unfolding enthalpy (calorimetric)” value was 84.8 kcal/mol and the “unfolding enthalpy (van 't Hoff)” value was 88.4 kcal/mol.

Same assay, conditions: Lithobates pipiens; pH 2.5; 25 °C; Thermal; DSC; MES 100 mM; reversible: yes; structure 1ONC; whole UniProt chain shown
With QDWLTFQKKHITNTRDVDCDNILSTNLFHCKDKNTFIYSRPEPVKAICKGIIASKNVLTTSEFYLSDCNVTSRPCKYKLKKSTNKFCVTCENQAPVHFVGVGSC [M23L] the “ddG of mutation (higher = less stable)” value was 2.29 kcal/mol and the unfolding free energy was 7.24 kcal/mol.

Same assay, conditions: Lithobates pipiens; pH 2.5; Thermal; DSC; MES 100 mM; reversible: yes; structure 1ONC; whole UniProt chain shown
In the case of QDWLTFQKKHITNTRDVDCDNILSTNLFHCKDKNTFIYSRPEPVKAICKGIIASKNVLTTSEFYLSDCNVTSRPCKYKLKKSTNKFCVTCENQAPVHFVGVGSC [M23L], the Tm is reported as 65.8 °C, the “change of melting temperature, mutant” value is reported as -6.8 °C and the “heat capacity change of unfolding” value is reported as 1.51 kcal/mol/K. The “unfolding enthalpy (calorimetric)” value was 90.8 kcal/mol and the “unfolding enthalpy (van 't Hoff)” value was 87.3 kcal/mol.

Same assay, conditions: Lithobates pipiens; pH 3; 25 °C; Thermal; DSC; MES 100 mM; reversible: yes; structure 1ONC; whole UniProt chain shown
With QDWLTFQKKHITNTRDVDCDNILSTNLFHCKDKNTFIYSRPEPVKAICKGIIASKNVLTTSEFYLSDCNVTSRPCKYKLKKSTNKFCVTCENQAPVHFVGVGSC [M23L] the “ddG of mutation (higher = less stable)” value was 2.77 kcal/mol and the unfolding free energy was 8.03 kcal/mol.

Same assay, conditions: Lithobates pipiens; pH 3; Thermal; DSC; MES 100 mM; reversible: yes; structure 1ONC; whole UniProt chain shown
In the case of QDWLTFQKKHITNTRDVDCDNILSTNLFHCKDKNTFIYSRPEPVKAICKGIIASKNVLTTSEFYLSDCNVTSRPCKYKLKKSTNKFCVTCENQAPVHFVGVGSC [M23L], the Tm is reported as 68.9 °C, the “change of melting temperature, mutant” value is reported as -7.6 °C and the “heat capacity change of unfolding” value is reported as 1.39 kcal/mol/K. For the same variant, the “unfolding enthalpy (calorimetric)” value was 95.6 kcal/mol and the “unfolding enthalpy (van 't Hoff)” value was 94.7 kcal/mol.

Same assay, conditions: Lithobates pipiens; pH 3.5; 25 °C; Thermal; DSC; MES 100 mM; reversible: yes; structure 1ONC; whole UniProt chain shown
In the case of QDWLTFQKKHITNTRDVDCDNILSTNLFHCKDKNTFIYSRPEPVKAICKGIIASKNVLTTSEFYLSDCNVTSRPCKYKLKKSTNKFCVTCENQAPVHFVGVGSC [M23L], the “ddG of mutation (higher = less stable)” value is reported as 2.89 kcal/mol and the unfolding free energy is reported as 9.32 kcal/mol.

Same assay, conditions: Lithobates pipiens; pH 3.5; Thermal; DSC; MES 100 mM; reversible: yes; structure 1ONC; whole UniProt chain shown
With QDWLTFQKKHITNTRDVDCDNILSTNLFHCKDKNTFIYSRPEPVKAICKGIIASKNVLTTSEFYLSDCNVTSRPCKYKLKKSTNKFCVTCENQAPVHFVGVGSC [M23L] the Tm was 74.7 °C, the “change of melting temperature, mutant” value was -6.9 °C and the “heat capacity change of unfolding” value was 1.48 kcal/mol/K. For the same variant, the “unfolding enthalpy (calorimetric)” value was 103 kcal/mol and the “unfolding enthalpy (van 't Hoff)” value was 99.8 kcal/mol.

Same assay, conditions: Lithobates pipiens; pH 4; Thermal; DSC; MES 100 mM; reversible: yes; structure 1ONC; whole UniProt chain shown
For QDWLTFQKKHITNTRDVDCDNILSTNLFHCKDKNTFIYSRPEPVKAICKGIIASKNVLTTSEFYLSDCNVTSRPCKYKLKKSTNKFCVTCENQAPVHFVGVGSC [M23L], the Tm was 80.7 °C, the “change of melting temperature, mutant” value was -6.1 °C and the “heat capacity change of unfolding” value was 1.34 kcal/mol/K. For the same variant, the “unfolding enthalpy (calorimetric)” value was 112 kcal/mol and the “unfolding enthalpy (van 't Hoff)” value was 115 kcal/mol.

Same assay, conditions: Lithobates pipiens; pH 5; 25 °C; Thermal; DSC; MES 100 mM; reversible: yes; structure 1ONC; whole UniProt chain shown
In the case of QDWLTFQKKHITNTRDVDCDNILSTNLFHCKDKNTFIYSRPEPVKAICKGIIASKNVLTTSEFYLSDCNVTSRPCKYKLKKSTNKFCVTCENQAPVHFVGVGSC [M23L], the “ddG of mutation (higher = less stable)” value is reported as 2.65 kcal/mol and the unfolding free energy is reported as 11.5 kcal/mol.

Same assay, conditions: Lithobates pipiens; pH 5; Thermal; DSC; MES 100 mM; reversible: yes; structure 1ONC; whole UniProt chain shown
In the case of QDWLTFQKKHITNTRDVDCDNILSTNLFHCKDKNTFIYSRPEPVKAICKGIIASKNVLTTSEFYLSDCNVTSRPCKYKLKKSTNKFCVTCENQAPVHFVGVGSC [M23L], the Tm is reported as 82.3 °C, the “change of melting temperature, mutant” value is reported as -6 °C and the “heat capacity change of unfolding” value is reported as 1.43 kcal/mol/K. The “unfolding enthalpy (calorimetric)” value was 115 kcal/mol and the “unfolding enthalpy (van 't Hoff)” value was 117 kcal/mol.

Same assay, conditions: Lithobates pipiens; pH 6; 25 °C; GdnHCl; CD; MES 100 mM; reversible: yes; structure 1ONC; whole UniProt chain shown
In the case of QDWLTFQKKHITNTRDVDCDNILSTNLFHCKDKNTFIYSRPEPVKAICKGIIASKNVLTTSEFYLSDCNVTSRPCKYKLKKSTNKFCVTCENQAPVHFVGVGSC [M23L], the “ddG of mutation (higher = less stable)” value is reported as 3.06 kcal/mol, the denaturant m value is reported as 3.25 kcal/mol/M and the “denaturant midpoint (higher = more stable)” value is reported as 3.4 M. It also gave an unfolding free energy of 11 kcal/mol.

Same assay, conditions: Lithobates pipiens; pH 6; 25 °C; GdnHCl; Fluorescence; MES 100 mM; reversible: yes; structure 1ONC; whole UniProt chain shown
For QDWLTFQKKHITNTRDVDCDNILSTNLFHCKDKNTFIYSRPEPVKAICKGIIASKNVLTTSEFYLSDCNVTSRPCKYKLKKSTNKFCVTCENQAPVHFVGVGSC [M23L], the “ddG of mutation (higher = less stable)” value was 2.63 kcal/mol, the denaturant m value was 3.3 kcal/mol/M and the “denaturant midpoint (higher = more stable)” value was 3.4 M. It also gave an unfolding free energy of 11.2 kcal/mol.

Same assay, conditions: Lithobates pipiens; pH 6; 25 °C; Thermal; DSC; MES 100 mM; reversible: yes; structure 1ONC; whole UniProt chain shown
For QDWLTFQKKHITNTRDVDCDNILSTNLFHCKDKNTFIYSRPEPVKAICKGIIASKNVLTTSEFYLSDCNVTSRPCKYKLKKSTNKFCVTCENQAPVHFVGVGSC [M23L], the “ddG of mutation (higher = less stable)” value was 2.65 kcal/mol and the unfolding free energy was 11.5 kcal/mol.

Same assay, conditions: Lithobates pipiens; pH 6; Thermal; DSC; MES 100 mM; reversible: yes; structure 1ONC; whole UniProt chain shown
In the case of QDWLTFQKKHITNTRDVDCDNILSTNLFHCKDKNTFIYSRPEPVKAICKGIIASKNVLTTSEFYLSDCNVTSRPCKYKLKKSTNKFCVTCENQAPVHFVGVGSC [M23L], the Tm is reported as 82.8 °C, the “change of melting temperature, mutant” value is reported as -5.9 °C and the “heat capacity change of unfolding” value is reported as 1.29 kcal/mol/K. For the same variant, the “unfolding enthalpy (calorimetric)” value was 115 kcal/mol and the “unfolding enthalpy (van 't Hoff)” value was 112 kcal/mol.

Same assay, conditions: Lithobates pipiens; pH 7; 25 °C; Thermal; DSC; MES 100 mM; reversible: yes; structure 1ONC; whole UniProt chain shown
With QDWLTFQKKHITNTRDVDCDNILSTNLFHCKDKNTFIYSRPEPVKAICKGIIASKNVLTTSEFYLSDCNVTSRPCKYKLKKSTNKFCVTCENQAPVHFVGVGSC [M23L] the “ddG of mutation (higher = less stable)” value was 2.22 kcal/mol and the unfolding free energy was 11.5 kcal/mol.

Same assay, conditions: Lithobates pipiens; pH 7; Thermal; DSC; MES 100 mM; reversible: yes; structure 1ONC; whole UniProt chain shown
For QDWLTFQKKHITNTRDVDCDNILSTNLFHCKDKNTFIYSRPEPVKAICKGIIASKNVLTTSEFYLSDCNVTSRPCKYKLKKSTNKFCVTCENQAPVHFVGVGSC [M23L], the Tm was 82 °C, the “change of melting temperature, mutant” value was -5.8 °C and the “heat capacity change of unfolding” value was 1.46 kcal/mol/K. For the same variant, the “unfolding enthalpy (calorimetric)” value was 115 kcal/mol and the “unfolding enthalpy (van 't Hoff)” value was 118 kcal/mol.

Same assay, conditions: Lithobates pipiens; pH 8; 25 °C; Thermal; DSC; MES 100 mM; reversible: yes; structure 1ONC; whole UniProt chain shown
For QDWLTFQKKHITNTRDVDCDNILSTNLFHCKDKNTFIYSRPEPVKAICKGIIASKNVLTTSEFYLSDCNVTSRPCKYKLKKSTNKFCVTCENQAPVHFVGVGSC [M23L], the “ddG of mutation (higher = less stable)” value was 2.39 kcal/mol and the unfolding free energy was 10.6 kcal/mol.

Same assay, conditions: Lithobates pipiens; pH 8; Thermal; DSC; MES 100 mM; reversible: yes; structure 1ONC; whole UniProt chain shown
With QDWLTFQKKHITNTRDVDCDNILSTNLFHCKDKNTFIYSRPEPVKAICKGIIASKNVLTTSEFYLSDCNVTSRPCKYKLKKSTNKFCVTCENQAPVHFVGVGSC [M23L] the Tm was 79.1 °C, the “change of melting temperature, mutant” value was -6.3 °C and the “heat capacity change of unfolding” value was 1.36 kcal/mol/K. For the same variant, the “unfolding enthalpy (calorimetric)” value was 110 kcal/mol and the “unfolding enthalpy (van 't Hoff)” value was 109 kcal/mol.
